{"source": "patent US9249224B2", "about": "(RINAT NEUROSCIENCE CORP., priority 2011, dated 2016)", "molecules": {"B1": {"name": "SS1: humanized GHR antagonist antibody; VL SEQ ID NO: 7, VH SEQ ID NO: 8; hIgG2Δa heavy chain SEQ ID NO: 134, light chain SEQ ID NO: 135 (antibody)", "heavy": "EVQLVESGGGLVKPGGSLRLSCAASGFTFSDAWMDWVRQAPGKGLEWVAEIRSKANYHATYYAESVKGRFTISRDDSKNTLYLQMNSLKTEDTAVYYCTLIRDYWGQGTLVTVSSASTKGPSVFPLAPCSRSTSESTAALGCLVKDYFPEPVTVSWNSGALTSGVHTFPAVLQSSGLYSLSSVVTVPSSNFGTQTYTCNVDHKPSNTKVDKTVERKCCVECPPCPAPPVAGPSVFLFPPKPKDTLMISRTPEVTCVVVDVSHEDPEVQFNWYVDGVEVHNAKTKPREEQFNSTFRVVSVLTVVHQDWLNGKEYKCKVSNKGLPSSIEKTISKTKGQPREPQVYTLPPSREEMTKNQVSLTCLVKGFYPSDIAVEWESNGQPENNYKTTPPMLDSDGSFFLYSKLTVDKSRWQQGNVFSCSVMHEALHNHYTQKSLSLSPGK", "light": "EIVLTQSPGTLSLSPGERATLSCTATSSVSSSYLNWYQQKPGQAPRLLIYSTSNLASGIPDRFSGSGSGTDFTLTISRLEPEDFAVYYCHQYHRSTPTFGGGTKVEIKRTVAAPSVFIFPPSDEQLKSGTASVVCLLNNFYPREAKVQWKVDNALQSGNSQESVTEQDSKDSTYSLSSTLTLSKADYEKHKVYACEVTHQGLSSPVTKSFNRGEC", "modifications": "Humanized and/or affinity matured antibody sequence"}}, "key": {"cyno GHR": {"test_system": "cyno GHR", "sequence (as listed by the source)": "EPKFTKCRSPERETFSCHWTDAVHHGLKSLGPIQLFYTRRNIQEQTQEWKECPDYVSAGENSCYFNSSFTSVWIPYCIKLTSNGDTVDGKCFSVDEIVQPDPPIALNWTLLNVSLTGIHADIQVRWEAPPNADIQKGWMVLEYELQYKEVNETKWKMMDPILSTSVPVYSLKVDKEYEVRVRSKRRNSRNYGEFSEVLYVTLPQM", "assay": "Biacore kinetics and affinity, captured IgG, cyno GHR analyte, 25° C.", "assay_type": "binding, cynomolgus monkey", "conditions": "IgG immobilized by capture", "experimental": "The affinity of a mouse anti-GHR antibody, Ab13, to human and cyno GHR was measured on a Biacore™ 2000 biosensor (GE Lifesciences™, Piscataway N.J.). An anti-mouse Ig sensor surface was prepared using a Biacore™ CM5 chip and reagents from the Biacore™ mouse antibody capture kit (GE Lifesciences™, Catalog# BR-1008-38), using instructions provided by the manufacturer.\nThe kinetics assay was run using a kinetic titration methodology as described in Karlsson et al., 2006, Anal. Biochem 349, 136-147. The mouse antibody, Ab13, was captured onto downstream flow cells at 0.5 μg/mL at a flow rate of 5 μL/min for 1 minute, 2 minutes and 4 minutes on flow cells 2, 3 and 4 respectively. Flow cell 1 was used as a reference surface. […]\nThe affinities of a humanized GHR antibody, SS1, and a chimeric molecule comprising the Fab of Ab13 fused to a human Fc domain (“Ab13-hFc”) to human and cyno GHR was measured on a Biacore™ 2000 biosensor (GE Lifesciences™ Piscataway N.J.). […]\nThe kinetics assay was run using a methodology with varying dissociation times as described in Katsamba et al., 2006, Anal. Biochem 352, 208-221. […] After the analyte injection, dissociation was monitored for 30 minutes (for the 400 nM GHR cycle) or 30 seconds (all other cycles) followed by regeneration of all flow cells with two 30-second injections of 75 mM phosphoric acid. […]"}, "human GHR": {"target": "T1, human GHR (Homo sapiens, UniProt P10912, I544L)", "T1 construct": "expressed in transfected cells; host or cells: HEK293", "T1 sequence (P10912 19-638 I544L)": "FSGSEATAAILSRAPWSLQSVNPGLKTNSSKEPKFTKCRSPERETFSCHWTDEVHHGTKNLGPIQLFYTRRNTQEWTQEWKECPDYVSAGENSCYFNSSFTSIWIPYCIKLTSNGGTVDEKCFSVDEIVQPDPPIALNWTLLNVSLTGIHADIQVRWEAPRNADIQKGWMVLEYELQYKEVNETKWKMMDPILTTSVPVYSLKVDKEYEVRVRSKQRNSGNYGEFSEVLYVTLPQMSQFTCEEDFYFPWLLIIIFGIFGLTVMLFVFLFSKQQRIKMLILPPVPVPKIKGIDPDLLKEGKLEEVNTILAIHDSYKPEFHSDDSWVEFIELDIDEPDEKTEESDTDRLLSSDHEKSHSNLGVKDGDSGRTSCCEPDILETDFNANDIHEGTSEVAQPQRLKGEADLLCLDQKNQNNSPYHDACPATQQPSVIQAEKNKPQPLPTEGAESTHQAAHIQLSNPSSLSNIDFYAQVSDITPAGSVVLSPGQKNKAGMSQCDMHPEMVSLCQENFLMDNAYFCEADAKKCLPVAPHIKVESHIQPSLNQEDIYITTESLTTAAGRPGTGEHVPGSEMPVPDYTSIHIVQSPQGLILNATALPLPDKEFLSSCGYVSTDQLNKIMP", "assay": "STAT5 phosphorylation in vitro assay, human GHR-transfected HEK293 cells", "assay_type": "cell-based", "conditions": "for fluorescent signal ave (phospho-STAT5): Table 7, human GHR-transfected cells", "experimental": "This Example illustrates the effect of GHR antibodies in an in vitro STAT5 phosphorylation assay. In this Example, the ability of GHR antibodies to block GHR downstream signaling was tested in vitro using human GHR overexpressing cells and cyno GHR overexpressing cells. […]\nAntibodies SS3 and SS1 (hIgG2Δa) were tested using a STAT5 phosphorylation assay. For the STAT5 assay, full-length human GHR overexpressing HEK293 cells or full-length cyno GHR-overexpressing HEK293 cells were cultured, counted by automated cell counter, and seeded in warm freestyle media in 12-well plates (5×10^5 cells/well in 1 ml media). Cells were allowed to settle for 3 hours at 37° C. then treated with 2.5, 5, 50, or 500 nM of SS1 or SS3 in media.\nMillipore™ lysis buffer with 1× protease inhibitor cocktail and sodium orthovanadate was added to each pellet at a volume of 100 ul/pellet Cells were vortexed and incubated for 15 minutes at room temp with occasional vortexing, Millipore™ Assay buffer 2 with 1× protease inhibitor cocktail and 1 mM sodium orthovanadate was then added to the lysates at 200 ul/well.\n25 ul/well of sample lysate was added to the wells and the beads and samples were incubated overnight at 4′C with shaking in the dark. […]\nThe plate was read using a Luminex 200 instrument and florescent signal emitted from the samples was measured."}}, "note": "“And” between values parts separate entries of the source, which are not always exact repeats. Equal values may be shown once."}
{"molecule": "B1", "values": [{"measurement": "ka", "setting": "cyno GHR", "result": "89000 M⁻¹ s⁻¹ and 81000 M⁻¹ s⁻¹"}, {"measurement": "kd", "setting": "cyno GHR", "result": "0.00011 s⁻¹ and 0.0001 s⁻¹"}, {"measurement": "fluorescent signal ave (phospho-STAT5)", "setting": "human GHR; 2.5 nM antibody + 4.5 nM GH", "result": 60}, {"measurement": "fluorescent signal ave (phospho-STAT5)", "setting": "human GHR; 5 nM antibody + 4.5 nM GH", "result": 22}, {"measurement": "fluorescent signal ave (phospho-STAT5)", "setting": "human GHR; 50 nM antibody + 4.5 nM GH", "result": 0}, {"measurement": "fluorescent signal ave (phospho-STAT5)", "setting": "human GHR; 500 nM antibody + 4.5 nM GH", "result": 5}, {"measurement": "effect on GH-stimulated STAT5 signaling", "setting": "human GHR; cells expressing human GHR, 4.5 nM GH", "result": "blocked STAT5 signaling in a dose-dependent manner"}]}
